Source: US20140219992

T1: fluorogenic peptide substrate IX, Mca-K-P-L-G-L-Dpa-A-R-NH2
T1 chain: KPLGLAR

B1: wild-type human matrix metalloprotease 1 (hMMP-1), purified and trypsin-activated (protein)
chain: FVLTEGNPRWEQTHLTYRIENYTPDLPRADVDHAIEKAFQLWSNVTPLTFTKVSEGQADIMISFVRGDHRDNSPFDGPGGNLAHAFQPGPGIGGDAHFDEDERWTNNFREYNLHRVAAHELGHSLGLSHSTDIGALMYPSYTFSGDVQLAQDDIDGIQAIYGRSQNPVQPIGPQTPKACDSKLTFDAITTIRGEVMFFKDRFYMRTNPFYPEVELNFISVFWPQLPNGLEAAYEFADRDEVRFFKGNKYWAVQGQNVLHGYPKDIYSSFGFPRTVKHIDAALSEENTGKTYFFVANKYWRYDEYKRSMDPGYPKMIAHDFPGIGHKVDAVFMKDGFFYFFHGTRQYKFDPKTKRILTLQKANSWFNCRKN
B2: MMP-1 mutant GVSK (G159V/S208K), purified and trypsin-activated (protein)
chain: FVLTEGNPRWEQTHLTYRIENYTPDLPRADVDHAIEKAFQLWSNVTPLTFTKVSEGQADIMISFVRGDHRDNSPFDGPVGNLAHAFQPGPGIGGDAHFDEDERWTNNFREYNLHRVAAHELGHSLGLKHSTDIGALMYPSYTFSGDVQLAQDDIDGIQAIYGRSQNPVQPIGPQTPKACDSKLTFDAITTIRGEVMFFKDRFYMRTNPFYPEVELNFISVFWPQLPNGLEAAYEFADRDEVRFFKGNKYWAVQGQNVLHGYPKDIYSSFGFPRTVKHIDAALSEENTGKTYFFVANKYWRYDEYKRSMDPGYPKMIAHDFPGIGHKVDAVFMKDGFFYFFHGTRQYKFDPKTKRILTLQKANSWFNCRKN

Experiments:
[1] = target: T1, fluorogenic peptide substrate IX, …
[2] = target: serum-derived protein (Zucker rat)

Row | Protein | KM (µM), enzyme kinetics at 1 mM Ca^2+, 37° C. [1] [µM] | KM (µM), enzyme kinetics at 10 mM Ca^2+, 37° C. [1] [µM] | enzymatic activity against the fluorogenic peptide substrate after incubation in 10% Zucker rat serum, 1 mM Ca^2+, 25° C. [2] | enzymatic activity lost after 15 minutes in 10% Zucker rat serum, 1 mM Ca^2+, 25° C. [2] | enzymatic activity remaining after 30 minutes in 10% Zucker rat serum, 1 mM Ca^2+, 25° C. [2] | enzymatic activity remaining after 2 hours in 10% Zucker rat serum, 1 mM Ca^2+, 25° C. [2] | enzymatic activity remaining after 2 hours in 10% Zucker rat serum, 10 mM Ca^2+, 25° C. [2]
1 | B1 | 20.6 | 21.1 | The activity of MMP-1 in 1 mM Ca^2+ buffer was unaffected by incubation with serum over the course of the study | – | – | – | –
2 | B2 | 16.5 | 11 | – | After 15 minutes of serum incubation, one-third of the activity of GVSK in 1 mM Ca^2+ was lost | less than 50% of activity remained after 30 minutes | only approximately 17% of the activity of GVSK in 1 mM Ca^2+ remained | approximately 74% of the original activity remaining by the 2 hour time point
